d = 2'-deoxy (DNA); r = 2'-OH (RNA)
How the values were obtained:
[1] = test system: DNAzyme; experiment: DNAzyme catalysis experiments: particle substrate vs ssDNA substrate; format: biochemical
Description: DNAzyme catalysis experiments. Fluorescence was directly measured at time points of 2 min, 5 min, 10 min, and 15 min after adding DNAzyme to F-ssDNA solutions in a 96-well plate. Maximum fluorescence for the DNAzyme (5 nM) added to micellar particles (0.14 g/L) at 15 minutes was set to a value of 1 for normalization of data. Complete consumption of particle bound substrate was confirmed by a calibration curve plotted for fluorescence vs concentration of a fluorescein-modified oligonucleotide (DNA-F—see above for synthesis and sequence). i.e. plateau in resulting curve is due to consumption of substrate not product inhibition. […] Fluorescent product from shell DNA cleavage was measured from supernatant that passed through a 10,000 MWCO spin tube filter. i.e. particles are left behind, and fluorescent product comes through for analysis at each time point. […]
The DNAzyme catalyst consists of a conserved DNA sequence forming a catalytic domain with 5′- and 3′-ends as recognition sequences.^22 Therefore, a DNA substrate with a single RNA base (rA) as the site of cleavage was chosen for incorporation in the DNA-brush copolymer architecture used to form micellar aggregates (FIG. 25). […] By centrifuging at 14,000×g for 30 seconds at given time points, the ssDNA product was separated from particles as it passed through the MWCO filter for analysis by fluorescence. […]

[2] = Particle size by DLS, TEM, AFM, SEM; format: physicochemical
Text: (§1) General Methods. All reagents were bought from TCI or Sigma-Aldrich and used without further purification. DNA synthesis reagents and modifiers were bought from Glen Research or AZCO scientific. 3,4-di(octadecyloxy)benzoic acid was synthesized via a standard literature procedure (Tuffin, R. P.; Toyne, K. J.; Goodby, J. W. J. Mater. Chem. 1996, 6, 1271-1282). All DNA was synthesized on an ABI-391 via standard solid phase synthesis on controlled pore glass supports. Fluorescence measurements were performed on a Zeiss LSM confocal fluorescence microscope. Reaction volumes of 50 μL were used in all fluorescence experiments of this type. […] DNA-surfactant and DNA concentrations were determined via UV-Vis on a Hitachi U-2810 spectrophotometer. Dh was determined by DLS on a Nano-ZS90 Malvern Instrument. Zeta potential was also measured on the Nano-ZS90 Malvern instrument. […] The identities of organic molecules were confirmed by ^1H (400 MHz) and ^13C (100 MHz) NMR spectra recorded on a Varian Mercury Plus spectrometer. […]
General Methods. […] Fluorescence measurements were performed with a microplate reader (Perkin Elmer, HTS7000 Plus, λex=485 nm, λem=535 nm) using black 96 well plates. Reaction volumes of 100 μL were used in all fluorescence experiments of this type. […]

[3] = Zeta potential measurement with variable MgCl2 concentration; format: physicochemical; conditions: vesicles, 5 mM MgCl2
Text: as §1
Zeta potential measurement with variable MgCl2 concentration. […] The zeta potential of these samples with variable MgCl2 concentrations was then measured by a Nano-ZS90 Malvern instrument. […]

[4] = Critical micelle concentration (CMC) determination with pyrene probe; format: physicochemical; conditions: micelles after DNA2 hybridization
Description: Critical Micelle Concentration (CMC) determination. A stock solution of pyrene was prepared by adding 1 mg pyrene in 10 mL of 20 mM Tris buffer (pH 7.4) and sonicating for 12 hrs, followed by centrifugation at 12,000×g for 5 min. The supernatant containing pyrene as the fluorescent probe was utilized for this assay and measured on a plate reader fluorometer, SPECTRAMAX GEMINI EM (Molecular Devices). DNA-lipid concentration was measured via UV absorbance and micelles were accordingly diluted serially in 96-well microplates (black well, black bottom, FIA, Greiner Bio-One). Excitation was done over a 300-360 nm wavelength range and the emission was recorded at 390 nm. The slit width for excitation was fixed at 1 nm. The concentration was plotted on a logarithmic scale and the critical micelle concentration was determined at the intercept of the two tangents drawn where the decreasing surface tension becomes constant.

## Fluorescein-5′-TCGCACCCrAGTCTCTCTCC-3′-Dabcyl (DNA TCGCACCCAGTCTCTCTCC; sugars from the 5' end d8 r1 d10, backbone not given here; further chemistry not fully specified) [F-ssDNA, fluorogenic single-stranded DNA substrate]
[1]; 2 μM substrate, 5 nM catalyst
  DNAzyme turnovers: 1.5 turnovers
[1]; F-ssDNA 1 μM, DNAzyme 5 nM
  DNAzyme turnover over the same time scale (15 minutes): low turnover

## DNA1-lipid: 3,4-di(octadecyloxy)benzoic acid conjugated to 5′-amino 9-mer ssDNA 5′-NH2-TCGCACCCA-3′; assembles into vesicles
[2]; after DNA2 addition to vesicles
  micelle size: 20-25 nm
[2]; spherical vesicles after dialysis, Tris 50 mM pH 7.4
  vesicle diameter: approx. 500 nm
[3]
  zeta-potential: −13 mV
[4]
  critical micelle concentration: 300 nM

From US9040626B2, “Nanofibers and morphology shifting micelles” (The Regents of the University of California, priority 2009, dated 2015)
